Measurements taken from patent US20230056992A1 (AGGAMIN, published 2023).

T1: endogenous sEng in pre-eclamptic patient serum (human, UniProt P17813 26-586)
T1 construct: Native protein in patient serum; the isoform or cleavage product is not defined; also called circulating sEng
T1 sequence (looked up): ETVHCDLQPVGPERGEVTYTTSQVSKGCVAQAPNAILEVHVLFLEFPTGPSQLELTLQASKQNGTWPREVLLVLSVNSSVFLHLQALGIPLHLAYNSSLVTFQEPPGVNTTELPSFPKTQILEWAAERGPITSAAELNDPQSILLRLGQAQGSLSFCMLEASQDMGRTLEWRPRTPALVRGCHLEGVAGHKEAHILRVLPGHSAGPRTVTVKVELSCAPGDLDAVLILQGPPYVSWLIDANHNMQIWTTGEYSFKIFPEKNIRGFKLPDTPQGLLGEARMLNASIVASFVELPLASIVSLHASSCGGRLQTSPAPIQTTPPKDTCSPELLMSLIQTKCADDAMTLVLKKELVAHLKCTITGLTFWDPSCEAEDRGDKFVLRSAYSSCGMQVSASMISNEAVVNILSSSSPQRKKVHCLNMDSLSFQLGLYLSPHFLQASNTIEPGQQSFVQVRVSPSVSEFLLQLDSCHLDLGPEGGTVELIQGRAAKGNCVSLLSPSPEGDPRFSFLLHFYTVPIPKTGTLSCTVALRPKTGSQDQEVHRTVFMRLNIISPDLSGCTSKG

T2: purified recombinant human sEng (human Endoglin ectodomain residues 26 to 586 with C-terminal 6x His tag, … (human, UniProt P17813 26-586))
T2 construct: range 26-586; also called spiked sEng; recombinant human sEng (amino acid residues 26-586)
T2 sequence: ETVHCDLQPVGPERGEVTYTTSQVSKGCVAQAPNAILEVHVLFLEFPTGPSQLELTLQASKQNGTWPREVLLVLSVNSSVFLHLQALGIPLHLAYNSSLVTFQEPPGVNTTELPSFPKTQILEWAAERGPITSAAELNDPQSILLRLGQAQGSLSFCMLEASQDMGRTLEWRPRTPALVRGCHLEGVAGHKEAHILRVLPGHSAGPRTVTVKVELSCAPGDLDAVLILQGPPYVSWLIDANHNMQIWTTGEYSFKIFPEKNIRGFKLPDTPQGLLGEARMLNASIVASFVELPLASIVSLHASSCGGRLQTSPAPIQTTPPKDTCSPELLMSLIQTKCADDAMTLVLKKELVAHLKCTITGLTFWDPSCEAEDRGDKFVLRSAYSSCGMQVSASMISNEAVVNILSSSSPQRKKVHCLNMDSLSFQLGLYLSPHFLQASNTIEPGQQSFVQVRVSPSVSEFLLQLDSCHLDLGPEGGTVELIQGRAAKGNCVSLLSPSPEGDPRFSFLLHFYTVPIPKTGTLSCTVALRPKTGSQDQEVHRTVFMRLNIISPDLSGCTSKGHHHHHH


Legend:
[1] = target: T3, endogenous sFlt-1 in pre-eclamptic patient serum (human, UniProt P17948-2 27-687, limits assumed); assay: 0.1 mL column of antibody-conjugated beads, pre-eclamptic patient serum
T3 construct: Native protein in patient serum; the isoform is not defined; also called circulating sFlt-1
T3 sequence (P17948 other isoform, or with tags, fused parts or gaps limits assumed): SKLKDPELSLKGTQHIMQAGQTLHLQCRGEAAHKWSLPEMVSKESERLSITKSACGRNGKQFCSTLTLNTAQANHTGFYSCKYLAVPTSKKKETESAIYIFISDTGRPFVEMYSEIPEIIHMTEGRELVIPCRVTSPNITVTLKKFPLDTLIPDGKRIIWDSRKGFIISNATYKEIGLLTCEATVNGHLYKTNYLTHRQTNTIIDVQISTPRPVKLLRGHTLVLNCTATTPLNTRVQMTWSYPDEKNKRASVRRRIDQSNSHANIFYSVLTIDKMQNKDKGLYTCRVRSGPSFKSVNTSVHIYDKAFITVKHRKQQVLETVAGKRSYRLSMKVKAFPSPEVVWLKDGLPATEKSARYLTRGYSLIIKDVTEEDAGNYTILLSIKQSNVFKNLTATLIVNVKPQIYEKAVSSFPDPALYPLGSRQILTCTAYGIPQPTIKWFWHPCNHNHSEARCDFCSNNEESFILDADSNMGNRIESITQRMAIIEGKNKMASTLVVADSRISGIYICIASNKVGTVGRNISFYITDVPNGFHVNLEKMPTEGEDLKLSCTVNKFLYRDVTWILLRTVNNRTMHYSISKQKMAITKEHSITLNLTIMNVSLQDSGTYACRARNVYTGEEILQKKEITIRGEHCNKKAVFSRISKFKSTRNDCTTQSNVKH
Procedure: (§1) Circulating sEng and sFlt-1 proteins are elevated in pre-eclampsia patients and are postulated to be major causal factors of disease onset and progression. To test whether a cENG10/AG10B dual device is capable of removing these endogenous sEng and sFlt-1 proteins from patient serum, micro-scale 0.1 mL columns conjugated with cENG10, AG10B, or both cENG10 and AG10B MAbs were prepared. cENG10 column specifically removed>90% of endogenous sEng in pre-eclamptic serum but not endogenous sFlt-1, and the AG10B column specifically removed>90% of endogenous sFlt-1 in pre-eclamptic serum but not endogenous sEng. The cENG10/AG10B dual device column, in which a mixture of the two antibodies at 1 mg each per mL beads were conjugated simultaneously, removed>90% of both sEng and sFlt-1 proteins.

[2] = target: T1, endogenous sEng in pre-eclamptic …; assay: as above
Procedure: as §1

[3] = target: T2, purified recombinant human sEng (human …); assay: 1 mL column, 0.2 mg MAb per mL Sepharose beads, flow rates 0.25-2.00 mL/min; input vs flow-through
Procedure: A 1-ml cENG10 device column was evaluated for depletion of spiked sEng in horse serum. For each column, 0.2 mg cENG10 or AG10B MAb was covalently conjugated to 1 mL of CNBr-activated Sepharose 4FF beads for 0.2 mg per mL beads ratio. For each test, 10 mL of serum containing 60 ng/mL of sEng, median concentration in severe pre-eclampsia patients, was applied for one cycle over the column. The first 1 ml containing pre-equilibration buffer was not collected in the flow-through (FT) fraction and the last 1 mL of input remaining in column was chased with 1 CV of PBS buffer and pooled into the FT fraction. The % sEng depletion was calculated by dividing the difference in concentration between input and FT by input concentration: […]

binding result [1]	binding result [2]	Binder	binding result [3]
no binding	–	chimeric anti-sEng antibody cENG10 (antibody, human IgG1, kappa, N297Q, V domains shown, Chimeric mouse/human IgG1 kappa with N300Q; also called anti-human sEng MAb; cENG10 column) VH: EVQLEQSGPEVVKPGTSVKISCKTSGYTITEHTLHWIKQNQGKSLEWIGGINFDNGGTTYRQKFKDKATLTVDKSSSTAFMELRSLTSDDSAVYFCARRAYYYGSAFDYWGQGTTLTVSS VL: ENVLTQSPAIMSASLGEKVTMTCRASSSVNYVYWYQQKSDASPKLWIYYTSNLAPGVPARFSGSGSGNSYSLTISSMEGEDAATYYCQQFISFPYTFGGGTKLEIKR	–
–	no binding	chimeric anti-sFlt-1 antibody AG10B (antibody, V domains shown, Chimeric mouse/human IgG1 kappa with N298Q; It served as the negative control for sEng depletion; also called AGB10; AB10B) VH: QVQLQQSGPELVKPGASVKMSCKASGYTFTDYVISWVKQRTGQGLEWIGEIYPGSGSIYYNEKFKGKATLTADTSSNTAYMQLSSLTFEDSAVIFCARGHYYGYFDYWGQGTTLTVSS VL: DIVMTQSHKFMSTSVGDRVSITCKASQDVTITVAWYQQKPGQSPKLLIYSASYRYTGVPDRFTGSGSGTDFTFTISSVQAEDLAVYYCQQHYTTPWTFGGGTKLEIKR	no binding (tested: 60 ng/mL sEng in 10 mL horse serum)
